Results from publication PMC12170185, “Dynamic RNA binding and unfolding by nonsense-mediated mRNA decay factor UPF2”.

T1: UPF3B (UniProt Q9BZI7 41-262)
T1 sequence: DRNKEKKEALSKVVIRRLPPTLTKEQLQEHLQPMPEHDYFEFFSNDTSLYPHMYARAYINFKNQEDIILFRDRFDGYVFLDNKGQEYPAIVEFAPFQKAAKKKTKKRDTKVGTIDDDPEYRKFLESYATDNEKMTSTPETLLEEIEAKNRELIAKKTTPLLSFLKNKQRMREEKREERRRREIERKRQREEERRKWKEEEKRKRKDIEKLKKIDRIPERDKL

T2: UPF1 (UniProt Q92900-2 115-914)
T2 sequence: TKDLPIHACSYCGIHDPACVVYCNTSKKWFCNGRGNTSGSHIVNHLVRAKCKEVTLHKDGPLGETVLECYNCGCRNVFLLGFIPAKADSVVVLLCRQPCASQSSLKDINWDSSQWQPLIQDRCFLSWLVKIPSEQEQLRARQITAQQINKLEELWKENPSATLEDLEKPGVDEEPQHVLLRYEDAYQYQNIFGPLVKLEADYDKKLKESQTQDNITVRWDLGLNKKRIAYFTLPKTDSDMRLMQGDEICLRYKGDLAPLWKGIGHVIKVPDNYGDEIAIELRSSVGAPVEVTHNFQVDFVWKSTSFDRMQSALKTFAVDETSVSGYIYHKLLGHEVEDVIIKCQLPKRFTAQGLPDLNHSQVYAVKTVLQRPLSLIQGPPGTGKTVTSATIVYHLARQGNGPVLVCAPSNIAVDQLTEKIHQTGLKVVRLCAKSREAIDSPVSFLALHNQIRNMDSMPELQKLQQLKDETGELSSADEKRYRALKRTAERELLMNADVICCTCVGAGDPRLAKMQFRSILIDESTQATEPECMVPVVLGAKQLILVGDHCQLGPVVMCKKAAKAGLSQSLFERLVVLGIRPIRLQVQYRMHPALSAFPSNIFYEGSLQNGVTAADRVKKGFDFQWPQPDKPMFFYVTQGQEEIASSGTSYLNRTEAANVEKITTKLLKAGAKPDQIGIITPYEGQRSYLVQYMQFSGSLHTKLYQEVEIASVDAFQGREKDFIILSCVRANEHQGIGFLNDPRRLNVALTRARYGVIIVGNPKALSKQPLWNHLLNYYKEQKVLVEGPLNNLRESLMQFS


Key:
[1] = target: T3, UPF2L (UniProt Q9HAU5 121-1227); test: fluorescence spectroscopy (unquenching); FA: 25 mM HEPES pH 7.45, 150 mM NaCl, 5% glycerol, 10 nM probe, temperature not stated; EMSA: 250 nM probe in 25 mM HEPES pH 7.45, 100 mM NaCl, 5% glycerol (protein dilution buffer 300 nM [sic] NaCl, 2 mM bME or 1 mM TCEP), 1 h on ice, gel at 4 C; settings: protein: recombinant; tags: C-terminal TEV site and His6; label: 5' HEX, 3' BHQ-1; hairpin with bulges
[2] = target: UPF2 MIF4G-D3 (UniProt Q9HAU5 761-1054); test: EMSA; weak unquenched complex band; FA: 25 mM HEPES pH 7.45, 150 mM NaCl, 5% glycerol, 10 nM probe, temperature not stated; EMSA: 250 nM probe in 25 mM HEPES pH 7.45, 100 mM NaCl, 5% glycerol (protein dilution buffer 300 nM [sic] NaCl, 2 mM bME or 1 mM TCEP), 1 h on ice, gel at 4 C; settings: protein: recombinant; tags: C-terminal TEV site and His6; label: 5' HEX, 3' BHQ-1; hairpin with bulges
[3] = target: UPF2L;UPF3B (human?;human?, UniProt Q9HAU5;Q9BZI7 121-1227;41-262, |); test: EMSA; higher affinity than UPF2L alone, lower than UPF3B; FA: 25 mM HEPES pH 7.45, 150 mM NaCl, 5% glycerol, 10 nM probe, temperature not stated; EMSA: 250 nM probe in 25 mM HEPES pH 7.45, 100 mM NaCl, 5% glycerol (protein dilution buffer 300 nM [sic] NaCl, 2 mM bME or 1 mM TCEP), 1 h on ice, gel at 4 C; settings: protein: recombinant;recombinant; tags: C-terminal TEV site and His6;; copies: 1;1; label: 5' HEX; hairpin with bulges
[4] = target: T3, UPF2L; test: fluorescence anisotropy; FA: 25 mM HEPES pH 7.45, 150 mM NaCl, 5% glycerol, 10 nM probe, temperature not stated; EMSA: 250 nM probe in 25 mM HEPES pH 7.45, 100 mM NaCl, 5% glycerol (protein dilution buffer 300 nM [sic] NaCl, 2 mM bME or 1 mM TCEP), 1 h on ice, gel at 4 C; settings: protein: recombinant; tags: C-terminal TEV site and His6; label: 5' HEX; hairpin with bulges
[5] = target: UPF2 MIF4G-D1-2 (UniProt Q9HAU5 120-757); test: EMSA; no defined complex band, no remodeling; FA: 25 mM HEPES pH 7.45, 150 mM NaCl, 5% glycerol, 10 nM probe, temperature not stated; EMSA: 250 nM probe in 25 mM HEPES pH 7.45, 100 mM NaCl, 5% glycerol (protein dilution buffer 300 nM [sic] NaCl, 2 mM bME or 1 mM TCEP), 1 h on ice, gel at 4 C; settings: protein: recombinant; tags: C-terminal TEV site and His6; label: 5' HEX; hairpin with bulges
[6] = target: UPF2 MIF4G-D2 (UniProt Q9HAU5 455-757); test: as above; settings: protein: recombinant; tags: C-terminal TEV site and His6; label: 5' HEX; hairpin with bulges
[7] = target: UPF2 MIF4G-D1 (UniProt Q9HAU5 120-486); test: as above; settings: protein: recombinant; tags: C-terminal TEV site and His6; label: 5' HEX; hairpin with bulges
[8] = target: T1, UPF3B; test: EMSA; excess UPF3B gives oligomers in well; FA: 25 mM HEPES pH 7.45, 150 mM NaCl, 5% glycerol, 10 nM probe, temperature not stated; EMSA: 250 nM probe in 25 mM HEPES pH 7.45, 100 mM NaCl, 5% glycerol (protein dilution buffer 300 nM [sic] NaCl, 2 mM bME or 1 mM TCEP), 1 h on ice, gel at 4 C; settings: protein: recombinant; label: 5' HEX; hairpin with bulges
[9] = target: UPF2L;UPF3B;UPF1 (human?;human?;human?, UniProt Q9HAU5;Q9BZI7;Q92900-2 121-1227;41-262;115-914, ||); test: EMSA; FA: 25 mM HEPES pH 7.45, 150 mM NaCl, 5% glycerol, 10 nM probe, temperature not stated; EMSA: 250 nM probe in 25 mM HEPES pH 7.45, 100 mM NaCl, 5% glycerol (protein dilution buffer 300 nM [sic] NaCl, 2 mM bME or 1 mM TCEP), 1 h on ice, gel at 4 C; settings: protein: recombinant;recombinant;recombinant; tags: C-terminal TEV site and His6;;; copies: 1;1;1; label: 5' HEX; hairpin with bulges
[10] = target: T2, UPF1; test: as above; settings: protein: recombinant; label: 5' HEX; hairpin with bulges
[11] = target: UPF2 MIF4G-D3;UPF3B (human?;human?, UniProt Q9HAU5;Q9BZI7 761-1054;41-262, |); test: as above; settings: protein: recombinant;recombinant; tags: C-terminal TEV site and His6;; copies: 1;1; label: 5' HEX; hairpin with bulges
Chain of UPF2 MIF4G-D3;UPF3B (Q9HAU5 761-1054, one chain of several): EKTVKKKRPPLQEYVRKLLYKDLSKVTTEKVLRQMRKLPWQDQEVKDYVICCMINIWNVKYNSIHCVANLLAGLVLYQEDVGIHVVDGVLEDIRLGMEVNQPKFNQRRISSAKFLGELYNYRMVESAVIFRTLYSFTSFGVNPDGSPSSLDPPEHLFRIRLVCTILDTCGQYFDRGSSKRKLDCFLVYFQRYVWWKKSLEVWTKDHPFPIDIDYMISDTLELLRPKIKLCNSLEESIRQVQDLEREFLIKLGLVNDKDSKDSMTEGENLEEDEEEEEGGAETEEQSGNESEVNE

T3 sequence (Q9HAU5 121-1227): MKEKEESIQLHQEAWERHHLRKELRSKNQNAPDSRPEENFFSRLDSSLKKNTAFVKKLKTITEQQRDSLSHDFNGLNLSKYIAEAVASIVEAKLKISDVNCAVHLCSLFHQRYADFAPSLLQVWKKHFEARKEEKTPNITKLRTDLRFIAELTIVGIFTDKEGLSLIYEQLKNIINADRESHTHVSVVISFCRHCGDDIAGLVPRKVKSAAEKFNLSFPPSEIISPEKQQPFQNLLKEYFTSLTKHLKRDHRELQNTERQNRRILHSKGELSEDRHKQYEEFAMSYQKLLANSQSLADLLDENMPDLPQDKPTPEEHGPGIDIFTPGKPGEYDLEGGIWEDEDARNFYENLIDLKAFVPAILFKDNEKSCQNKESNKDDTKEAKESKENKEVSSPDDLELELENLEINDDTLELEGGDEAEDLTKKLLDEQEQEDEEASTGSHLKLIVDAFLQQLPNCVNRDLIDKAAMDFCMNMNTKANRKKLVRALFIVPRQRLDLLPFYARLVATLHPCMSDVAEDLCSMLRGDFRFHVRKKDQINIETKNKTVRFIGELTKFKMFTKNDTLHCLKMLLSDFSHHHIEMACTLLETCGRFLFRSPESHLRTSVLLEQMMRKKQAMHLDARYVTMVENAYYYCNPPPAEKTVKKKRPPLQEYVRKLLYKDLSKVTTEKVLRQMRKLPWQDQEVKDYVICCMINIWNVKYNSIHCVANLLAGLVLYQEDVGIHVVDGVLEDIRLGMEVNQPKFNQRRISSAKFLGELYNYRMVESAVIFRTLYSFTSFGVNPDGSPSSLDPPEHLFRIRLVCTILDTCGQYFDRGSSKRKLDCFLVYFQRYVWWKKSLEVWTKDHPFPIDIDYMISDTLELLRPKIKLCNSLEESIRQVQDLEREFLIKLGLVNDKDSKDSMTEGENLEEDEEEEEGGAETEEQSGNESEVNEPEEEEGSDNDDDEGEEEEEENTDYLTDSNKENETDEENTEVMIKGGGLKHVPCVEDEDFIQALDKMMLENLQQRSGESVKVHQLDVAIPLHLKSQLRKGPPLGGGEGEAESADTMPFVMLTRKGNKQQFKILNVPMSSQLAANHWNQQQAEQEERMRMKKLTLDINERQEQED
Chain of UPF2 MIF4G-D1-2 (Q9HAU5 120-757): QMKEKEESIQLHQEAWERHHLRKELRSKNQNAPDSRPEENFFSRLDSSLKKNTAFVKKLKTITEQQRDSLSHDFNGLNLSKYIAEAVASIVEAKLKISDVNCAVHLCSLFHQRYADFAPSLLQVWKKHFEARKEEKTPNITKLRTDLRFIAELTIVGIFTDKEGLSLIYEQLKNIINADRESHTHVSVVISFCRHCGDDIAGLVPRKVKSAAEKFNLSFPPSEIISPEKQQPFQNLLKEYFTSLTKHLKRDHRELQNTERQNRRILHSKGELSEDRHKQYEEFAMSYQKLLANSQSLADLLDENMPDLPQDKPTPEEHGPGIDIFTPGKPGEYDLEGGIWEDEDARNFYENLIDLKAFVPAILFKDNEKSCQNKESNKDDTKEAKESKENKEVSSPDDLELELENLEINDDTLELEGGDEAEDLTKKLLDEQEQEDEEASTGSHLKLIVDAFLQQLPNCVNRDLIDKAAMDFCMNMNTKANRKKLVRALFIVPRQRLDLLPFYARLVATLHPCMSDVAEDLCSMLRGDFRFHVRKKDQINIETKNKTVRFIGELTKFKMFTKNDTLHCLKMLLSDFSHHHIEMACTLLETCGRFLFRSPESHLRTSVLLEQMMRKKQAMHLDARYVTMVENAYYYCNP
Chain of UPF2 MIF4G-D1 (Q9HAU5 120-486): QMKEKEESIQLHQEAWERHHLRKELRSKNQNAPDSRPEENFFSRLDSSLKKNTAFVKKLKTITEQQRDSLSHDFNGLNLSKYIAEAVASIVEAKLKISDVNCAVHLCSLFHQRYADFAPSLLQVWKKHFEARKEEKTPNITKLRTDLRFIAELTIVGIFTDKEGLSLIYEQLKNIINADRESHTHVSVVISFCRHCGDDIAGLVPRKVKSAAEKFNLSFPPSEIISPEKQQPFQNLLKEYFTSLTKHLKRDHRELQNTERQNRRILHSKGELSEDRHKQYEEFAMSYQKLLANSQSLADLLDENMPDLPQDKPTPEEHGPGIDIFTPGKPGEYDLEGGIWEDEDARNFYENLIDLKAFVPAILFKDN
Chain of UPF2L;UPF3B (Q9HAU5 121-1227, one chain of several): as the sequence (Q9HAU5 121-1227) above
Chain of UPF2L;UPF3B;UPF1 (Q9HAU5 121-1227, one chain of several): as the sequence (Q9HAU5 121-1227) above
Chain of UPF2 MIF4G-D3 (Q9HAU5 761-1054): as the sequence (Q9HAU5 761-1054, one chain of several) above
Chain of UPF2 MIF4G-D2 (Q9HAU5 455-757): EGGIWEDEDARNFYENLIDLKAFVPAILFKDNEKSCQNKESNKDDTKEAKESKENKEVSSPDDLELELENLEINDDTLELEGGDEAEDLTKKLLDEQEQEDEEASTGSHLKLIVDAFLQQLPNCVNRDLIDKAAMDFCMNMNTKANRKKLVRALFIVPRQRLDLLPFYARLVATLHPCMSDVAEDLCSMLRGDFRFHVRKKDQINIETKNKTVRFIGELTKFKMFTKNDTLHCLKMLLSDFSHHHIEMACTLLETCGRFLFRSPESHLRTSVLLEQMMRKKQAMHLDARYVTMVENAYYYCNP

| Binder | binding result [1] | binding result [2] | binding result [3] | Kd [4] [nM] | binding result [5] | binding result [6] | binding result [7] | binding result [8] | binding result [9] | binding result [10] | binding result [11] |
| --- | --- | --- | --- | --- | --- | --- | --- | --- | --- | --- | --- |
| CCCUGAGCUGACGCAGCACCUGGG (structured_RNA, 3' BHQ-1) [HEX_hp-RNA_BHQ molecular beacon] | binds | binds |  |  |  |  |  |  |  |  |  |
| CCCUGAGCUGACGCAGCACCUGGG (structured_RNA) [24 nt hp-RNA] |  |  | binds | 223 | no binding | no binding | no binding | binds | binds | binds | binds |
